Tests used:
[1] = molecular target: V5-tagged Steppke (Step-V5-His) (Drosophila); assay: co-IP; FLAG-tagged Jub constructs co-expressed with a V5-tagged partner in Drosophila S2 cells; lysis and washes in RIPA buffer (140 mM NaCl, 10 mM Tris-HCl pH 8.0, 1 mM EDTA, 1.0% Triton X-100, 0.1% SDS, 0.1% sodium deoxycholate); precipitated with anti-V5 agarose beads, blotted with anti-FLAG; band intensity normalised to full length Jub
[2] = molecular target: N2 domain of α-catenin, tagged with V5 (Drosophila) (UniProt P35220); assay: as above
Chain of UniProt P35220 (P35220 whole entry, the tested form may be a part): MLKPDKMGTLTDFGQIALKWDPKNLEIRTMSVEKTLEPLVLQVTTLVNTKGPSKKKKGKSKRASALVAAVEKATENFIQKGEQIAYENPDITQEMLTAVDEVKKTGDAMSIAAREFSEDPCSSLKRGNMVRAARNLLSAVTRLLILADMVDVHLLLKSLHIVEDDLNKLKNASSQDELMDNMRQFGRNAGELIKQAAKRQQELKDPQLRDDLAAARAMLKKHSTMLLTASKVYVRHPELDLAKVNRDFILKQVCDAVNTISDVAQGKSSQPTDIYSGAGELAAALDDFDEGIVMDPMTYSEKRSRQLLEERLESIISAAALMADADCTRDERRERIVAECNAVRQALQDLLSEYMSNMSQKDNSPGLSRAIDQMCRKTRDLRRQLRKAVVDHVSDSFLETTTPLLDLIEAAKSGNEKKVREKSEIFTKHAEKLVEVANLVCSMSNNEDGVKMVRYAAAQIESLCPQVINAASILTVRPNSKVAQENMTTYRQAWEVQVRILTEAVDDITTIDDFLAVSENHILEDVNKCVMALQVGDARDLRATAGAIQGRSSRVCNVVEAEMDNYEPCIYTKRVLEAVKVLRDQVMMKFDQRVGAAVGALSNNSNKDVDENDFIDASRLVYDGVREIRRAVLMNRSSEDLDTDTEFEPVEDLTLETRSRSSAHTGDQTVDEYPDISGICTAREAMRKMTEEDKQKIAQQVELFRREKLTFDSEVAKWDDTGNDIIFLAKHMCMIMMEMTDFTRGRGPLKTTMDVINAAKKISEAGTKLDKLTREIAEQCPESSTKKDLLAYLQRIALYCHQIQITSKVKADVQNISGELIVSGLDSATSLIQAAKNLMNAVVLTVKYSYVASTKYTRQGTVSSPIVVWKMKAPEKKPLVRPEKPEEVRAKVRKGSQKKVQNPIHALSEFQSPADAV

Row | co-precipitation relative to full length Jub (% of full length) [1] | co-immunoprecipitation relative to full length Jub (% of full length) [2] | Substance
1 | 30 |  | Jub preLIM+LIM1 (1-559 and 693-718), FLAG-tagged (from UniProt Q9VY77 1-559; Q9VY77 693-718) (domain or fragment)
2 | > 64 |  | Jub preLIM+LIM2 (1-505, 571-623, and 693-718), FLAG-tagged (from UniProt Q9VY77 1-505; Q9VY77 571-623; Q9VY77 693-718) (domain or fragment)
3 | 30 |  | Jub preLIM+LIM3 (1-505 and 631-718), FLAG-tagged (from UniProt Q9VY77 1-505; Q9VY77 631-718) (domain or fragment)
4 | > 64 | 170 | Jub preLIM+LIM12 (1-623 and 693-718), FLAG-tagged (from UniProt Q9VY77 1-623; Q9VY77 693-718) (domain or fragment)
5 | > 64 | 50 | Jub preLIM+LIM13 (1-570 and 631-718), FLAG-tagged (from UniProt Q9VY77 1-570; Q9VY77 631-718) (domain or fragment)
6 | > 64 | 780 | Jub preLIM+LIM23 (1-505, 571-718), FLAG-tagged (from UniProt Q9VY77 1-505; Q9VY77 571-718) (domain or fragment)
7 |  | 24 | Jub-preLIM (1-505), FLAG-tagged (from UniProt Q9VY77 1-505) (domain or fragment)

Reference: paper PMC9377591
